Data as given in paper doi:10.1101/856021 (2019).

Biological target: Jil-1 peptide 984-1004 F989A (Drosophila, UniProt Q9V3I5 984-994, F989A)
Test: ITC

Kd: 122 µM
B1: dP75 IBD-containing C-terminus region (residues 209-445) (domain or fragment)
chain: AAVTPIQKRSRPVNNIRNEMLMVYMPTAKCLGIVINYKKPESFESAAAEEAWMENARKEALELKLKLESGQINPESMPDRIVVEPTRSEIPKQEALRFIEELIEHEDALFMERDFIQLSQQLRECLGLRRANVGKCLEILEQFKEVEFTKLMLLRNPECVDIMRRLRRYVGNLELWKMDLSDEVEFKERAQTIRKVSSGIYDGFKSLFNPEPESEDNFWIDFCEKVKIYKTYTKNIN
